{"source": "patent US20180216138", "proteins": {"B1": {"name": "Ferredoxin-NADP+ reductase from Clostridium acetobutylicum encoded by CA_C0764 (protein)", "chain": "MDNPNLLSEEANRCLLCKNPRCKANCPINTPIPEIISLYKEGKIMEAGEILFNNNPLSVICSLVCIHEDQCKGNCVRGIKSEPIKFHEIEEEISEKYLKEAKLKNVQKDKDRIAIVGGGPAGITVAFVLANKGYNVTIFEAHDKIGGVLRYGIPEYRLTKKLVDKLEERLIEVGVKIRPNTVIGPVISLDRLLEDSYKAVFIGTGVWNPKTLDVKGETLGNVHFAIDYLKSPESYRLGKKVAVIGAGNVAMDAARTAKRNGAEVTILYRKSFNEMPASKQEIRETKEDGVEFKLFRAPIEITEEGIKVAFTENVTDAEGKIRTKIIEGKEEFFECDSVVVAVSQAPKDNIVSNTTGLDTKWGLIVTDEKGNTTKKGTFACGDVVTGAKTVVEAAAQAKVVAETIDEYCKNN"}}, "biological_target": "ferredoxin (CA_C0303) from Clostridium acetobutylicum"}
{"protein": "B1", "values": [{"measurement": "Ferredoxin NADP+ reductase specific activity", "result": 9.5, "unit": "U/mg protein"}]}
